# T1: EhDPCK1 (Entamoeba histolytica, UniProt C4MB67)
# T1 construct: gene EHI_040840; expressed in E. coli BL21(DE3), Ni-NTA purified
# T1 sequence (C4MB67 1-206): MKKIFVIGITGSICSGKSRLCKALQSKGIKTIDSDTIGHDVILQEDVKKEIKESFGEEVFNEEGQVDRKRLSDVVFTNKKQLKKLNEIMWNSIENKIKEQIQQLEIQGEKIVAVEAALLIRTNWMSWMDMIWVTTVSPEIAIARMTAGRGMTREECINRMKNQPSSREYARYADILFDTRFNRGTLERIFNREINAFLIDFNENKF
# T2: EhDPCK2 (Entamoeba histolytica, UniProt C4LWC7)
# T2 construct: gene EHI_155780; expressed in E. coli BL21(DE3), Ni-NTA purified
# T2 sequence (C4LWC7 1-204): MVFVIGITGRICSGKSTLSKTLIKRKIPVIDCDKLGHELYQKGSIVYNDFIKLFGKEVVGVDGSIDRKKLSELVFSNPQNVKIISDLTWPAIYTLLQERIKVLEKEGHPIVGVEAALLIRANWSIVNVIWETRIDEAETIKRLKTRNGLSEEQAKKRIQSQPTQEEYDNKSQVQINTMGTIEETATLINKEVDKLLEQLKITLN
# B1: EhDPCK1 (Entamoeba histolytica HM-1:IMSS) (protein)
# chain: T1 sequence (C4MB67 1-206)
# notes: expressed in E. coli BL21(DE3), Ni-NTA purified
# B2: EhDPCK2 (Entamoeba histolytica HM-1:IMSS) (protein)
# chain: T2 sequence (C4LWC7 1-204)
# notes: as for B1
# Assays:
# EhDPCK1 = target: T1, EhDPCK1; assay: inhibition of DPCK activity; assay type: biochemical
# EhDPCK2 = target: T2, EhDPCK2; assay: inhibition of DPCK activity; assay type: biochemical
# [1] = substrate: CC(C)(COP(=O)(O)OP(=O)(O)OC[C@H]1O[C@@H](n2cnc3c(N)ncnc32)[C@H](O)[C@@H]1O)[C@@H](O)C(=O)NCCC(=O)NCCS; assay: ADP Hunter Plus coupled fluorescence assay, initial rates, non-linear regression; assay type: biochemical, Entamoeba histolytica; details: 100 μM ATP; 4-128 μM dephospho-CoA; 15 mM Hepes, 20 mM NaCl, 1 mM EGTA, 10 mM MgCl2
# Source text: (§1) ADP Hunter Plus coupled fluorescence assay, initial rates, non-linear regression on EhDPCK1
# [2] = substrate: Nc1ncnc2c1ncn2[C@@H]1O[C@H](COP(=O)(O)OP(=O)(O)OP(=O)(O)O)[C@@H](O)[C@H]1O; assay: as above; assay type: biochemical, Entamoeba histolytica; details: 128 μM dephospho-CoA; 1-100 μM ATP; 15 mM Hepes, 20 mM NaCl, 1 mM EGTA, 10 mM MgCl2
# Source text: as §1
# [3] = substrate: CC(C)(COP(=O)(O)OP(=O)(O)OC[C@H]1O[C@@H](n2cnc3c(N)ncnc32)[C@H](O)[C@@H]1O)[C@@H](O)C(=O)NCCC(=O)NCCS; assay: as above; assay type: biochemical, Entamoeba histolytica; details: 100 μM ATP; 4-128 μM dephospho-CoA; 15 mM Hepes, 20 mM NaCl, 1 mM EGTA, 10 mM MgCl2; remark: listed apart in the source
# Source text: (§2) ADP Hunter Plus coupled fluorescence assay, initial rates, non-linear regression on EhDPCK2
# [4] = substrate: Nc1ncnc2c1ncn2[C@@H]1O[C@H](COP(=O)(O)OP(=O)(O)OP(=O)(O)O)[C@@H](O)[C@H]1O; assay: as above; assay type: biochemical, Entamoeba histolytica; details: 128 μM dephospho-CoA; 1-100 μM ATP; 15 mM Hepes, 20 mM NaCl, 1 mM EGTA, 10 mM MgCl2; remark: listed apart in the source
# Source text: as §2
# [5] = feedback inhibition at relatively high concentrations
# [6] = product feedback inhibition at relatively high concentrations
molecule,measurement,setting,value
CC(=O)SCCNC(=O)CCNC(=O)[C@H](O)C(C)(C)COP(=O)(O)OP(=O)(O)OC[C@H]1O[C@@H](n2cnc3c(N)ncnc32)[C@H](O)[C@@H]1OP(=O)(O)O [acetyl-CoA],inhibition,EhDPCK1; [5],"Both EhDPCK1 and EhDPCK2 showed similar profiles of inhibition by CoA, acetyl-CoA, and malonyl-CoA"
same,inhibition,EhDPCK2; [5],"Both EhDPCK1 and EhDPCK2 showed similar profiles of inhibition by CoA, acetyl-CoA, and malonyl-CoA"
CC(C)(COP(=O)(O)OP(=O)(O)OC[C@H]1O[C@@H](n2cnc3c(N)ncnc32)[C@H](O)[C@@H]1OP(=O)(O)O)[C@@H](O)C(=O)NCCC(=O)NCCSC(=O)CC(=O)O [malonyl-CoA],inhibition,EhDPCK1; [5],"Both EhDPCK1 and EhDPCK2 showed similar profiles of inhibition by CoA, acetyl-CoA, and malonyl-CoA"
same,inhibition,EhDPCK2; [5],"Both EhDPCK1 and EhDPCK2 showed similar profiles of inhibition by CoA, acetyl-CoA, and malonyl-CoA"
CC(C)(COP(=O)(O)OP(=O)(O)OC[C@H]1O[C@@H](n2cnc3c(N)ncnc32)[C@H](O)[C@@H]1OP(=O)(O)O)[C@@H](O)C(=O)NCCC(=O)NCCS [CoA],inhibition,EhDPCK1; [6],"Both EhDPCK1 and EhDPCK2 showed similar profiles of inhibition by CoA, acetyl-CoA, and malonyl-CoA"
same,inhibition,EhDPCK2; [6],"Both EhDPCK1 and EhDPCK2 showed similar profiles of inhibition by CoA, acetyl-CoA, and malonyl-CoA"
B1,Km,[1],114 ± 19 µM
same,Vmax,[1],3.71 µmol/min/mg
same,kcat,[1],1.48 ± 0.172 s⁻¹
same,kcat/Km,[1],13000 ± 667 M⁻¹ s⁻¹
same,Km,[2],19.6 ± 1.2 µM
same,Vmax,[2],3.54 µmol/min/mg
same,kcat,[2],1.41 ± 0.04 s⁻¹
same,kcat/Km,[2],72000 ± 3830 M⁻¹ s⁻¹
B2,Km,[3],57.9 ± 6.07 µM
same,Vmax,[3],2.48 µmol/min/mg
same,kcat,[3],0.958 ± 0.0583 s⁻¹
same,kcat/Km,[3],16500 ± 1170 M⁻¹ s⁻¹
same,Km,[4],15.0 ± 2.4 µM
same,Vmax,[4],2.71 µmol/min/mg
same,kcat,[4],1.05 ± 0.0617 s⁻¹
same,kcat/Km,[4],70800 ± 12300 M⁻¹ s⁻¹

# From paper PMC6284149, “Biochemical, Metabolomic, and Genetic Analyses of Dephospho Coenzyme A Kinase Involved in Coenzyme A Biosynthesis in the Human Enteric Parasite Entamoeba histolytica” (Frontiers in Microbiology, 2018)
